What is called Kd is the concentration at which binding is half-saturated.

The target of data set [1] is T1, CmPSRB1 (recombinant PSRB1) (Cucurbita maxima).
T1 chain: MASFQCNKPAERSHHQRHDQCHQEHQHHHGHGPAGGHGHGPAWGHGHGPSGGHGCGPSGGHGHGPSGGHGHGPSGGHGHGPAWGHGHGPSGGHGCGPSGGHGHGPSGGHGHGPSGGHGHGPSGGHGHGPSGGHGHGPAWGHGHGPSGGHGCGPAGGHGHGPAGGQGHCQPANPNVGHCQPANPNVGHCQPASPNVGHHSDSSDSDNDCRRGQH
The data set can be described thus: cell_activity. To be noted: cell-to-cell movement, binding not directly measured.

In data set [2] the target is T2, KNOTTED1 (KN1) (UniProt P24345).
T2 sequence: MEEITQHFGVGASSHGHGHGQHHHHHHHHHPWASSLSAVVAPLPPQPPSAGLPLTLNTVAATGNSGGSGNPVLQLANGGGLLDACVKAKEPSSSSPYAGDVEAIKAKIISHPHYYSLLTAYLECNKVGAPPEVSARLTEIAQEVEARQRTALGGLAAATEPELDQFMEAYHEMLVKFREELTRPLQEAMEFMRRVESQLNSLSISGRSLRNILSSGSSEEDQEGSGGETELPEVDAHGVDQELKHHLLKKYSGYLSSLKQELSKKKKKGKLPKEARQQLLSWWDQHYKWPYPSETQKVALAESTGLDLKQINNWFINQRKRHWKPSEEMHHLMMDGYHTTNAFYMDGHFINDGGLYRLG
Briefly: cell_activity.

Data set [3] concerns the target T3, CMV movement protein (CMV-MP) (Cucumber mosaic virus) (UniProt Q83252).
T3 sequence: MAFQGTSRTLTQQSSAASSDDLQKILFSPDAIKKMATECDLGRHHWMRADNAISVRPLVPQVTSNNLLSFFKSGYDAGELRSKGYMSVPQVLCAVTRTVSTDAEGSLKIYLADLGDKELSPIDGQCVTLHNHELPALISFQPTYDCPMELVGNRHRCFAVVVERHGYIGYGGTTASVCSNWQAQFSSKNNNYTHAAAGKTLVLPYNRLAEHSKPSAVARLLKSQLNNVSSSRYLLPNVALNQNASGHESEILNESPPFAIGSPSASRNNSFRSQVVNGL
The data set can be described thus: cell_activity.

Data set [4] addresses T1, CmPSRB1 (recombinant PSRB1). The data set can be described thus: EMSA; competition gel shift; 20 mM Hepes pH 7.0, 50 mM KCl, 1 mM EDTA, 30 C. The following applies: tags: none (native, pET15b, E. coli); 3' 2 nt overhang. Here is the method: Electrophoretic mobility-shift assays were carried out as described (S12). Reactions were assembled on ice in 10 μl of binding buffer (20 mM Hepes, pH 7.0, 50 mM KCl, 1 mM EDTA, 1 mM DTT, and 5% [v/v] glycerol). An equal amount of ³²P end-labeled 25 nt ss- or dsRNA was used in assays with various concentrations of purified and desalted R-CmPSRB1. Reaction mixtures were incubated at 30° C. for 20 min and then placed on ice. Reactions were then resolved on a 5% (v/v) nondenaturing polyacrylamide gel that was pre-run for 30 min at 50 V. Electrophoresis was typically carried out at 4° C. and 200 V. The gel was then dried and autoradiographed.
For orientation: A gel shift assay detects complexes by their altered migration in electrophoresis.

As to CmRINGP RNA (1 kb), the activity (% injections with movement) in data set [1] (0 of 8) was found to be 0; in data set [2] (cell-to-cell movement, 0 of 12) it was 0; in data set [3] (cell-to-cell movement, 10 of 10), 100. With 25 nt dsRNA (overhang type not stated), the activity (% injections with movement) in data set [3] (with FITC-dextran, 0 of 13) was found to be 0.

Take GGAAAACUACCUGUUCCAUGGCCAA: in data set [3] (cell-to-cell movement, 0 of 10), the activity (% injections with movement) came out at 0.

On to 25 nt ssDNA, for which, in data set [1] (0 of 14), the activity (% injections with movement) stood at 0. With KN1 RNA (sense), in data set [2] (CITED includes previous studies (S13), 20 of 22, cited from earlier work), the activity (% injections with movement) is 91. KN1 RNA (antisense): the activity (% injections with movement) in data set [2] (CITED includes previous studies (S13), 2 of 10, cited from earlier work) is 20.

B1: 25 nt dsRNA 3' 2 nt overhang (FK221/FK224) (dsRNA)
RNA 1: GGAAAACUACCUGUUCCAUGGCCAA
RNA 2: GGCCAUGGAACAGGUAGUUUUCCAG
In the case of B1, the equilibrium dissociation constant (Kd) in data set [4] turned out to be 30.6 µM.

These data come from US20050050588, “Systemic small RNA signaling system in plants” (published 2005).
